Measurements as given in US20100196266A1 (published 2010).
Blank lines part the entries; values can stand above or below the binder they belong to.

Columns and labels:
[1] = target: T1, human CD20 on cells (human, UniProt P11836 1-297); test: indirect FACS, FITC-GAH Fc, SU-DHL-6 cells; none 4.6
T1 construct: whole, on cells
T1 sequence (looked up): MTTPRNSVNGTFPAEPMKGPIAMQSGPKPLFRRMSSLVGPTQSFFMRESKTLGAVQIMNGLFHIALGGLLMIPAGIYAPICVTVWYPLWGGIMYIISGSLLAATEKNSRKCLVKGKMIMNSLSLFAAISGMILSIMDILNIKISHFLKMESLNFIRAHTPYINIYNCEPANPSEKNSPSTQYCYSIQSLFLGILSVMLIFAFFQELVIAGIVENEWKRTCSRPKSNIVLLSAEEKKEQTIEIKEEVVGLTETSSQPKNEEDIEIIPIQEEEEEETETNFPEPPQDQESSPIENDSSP

[2] = target: T1, human CD20 on cells; test: indirect FACS, FITC-GAH Fc, Namalwa cells; none 2.5
[3] = target: T1, human CD20 on cells; test: indirect flow cytometry, FITC-GAH Fc, Ramos cells; none 3.1
[4] = target: T1, human CD20 on cells; test: indirect flow cytometry, FITC-GAH Fc, Raji cells; none 6.9
[5] = target: T1, human CD20 on cells; test: indirect flow cytometry, Namalwa cells, FITC-GAH; none 2.52
[6] = target: T1, human CD20 on cells; test: indirect flow cytometry, FITC-GAH Fc, Daudi cells; none 3.2
[7] = target: T1, human CD20 on cells; test: indirect flow cytometry, FITC-GAH Fc, SU-DHL-6 cells; none 4.6
[8] = target: T1, human CD20 on cells; test: indirect flow cytometry, FITC-GAH Fc, RL cells; none 2.4
[9] = target: T1, human CD20 on cells; test: indirect FACS, FITC-GAH Fc, Raji cells; none 6.8
[10] = target: T1, human CD20 on cells; test: indirect flow cytometry, FITC-GAH Fc, Namalwa cells; none 2.6
[11] = target: T1, human CD20 on cells; test: indirect flow cytometry, FITC-GAH Fc, WSU-FSCCL cells; none 2.7
[12] = target: T1, human CD20 on cells; test: indirect FACS, FITC-GAH Fc, Ramos cells; none 3.1
[13] = target: T1, human CD20 on cells; test: indirect FACS, FITC-GAH Fc, WSU-FSCCL cells; none 2.6
[14] = target: T1, human CD20 on cells; test: indirect FACS, FITC-GAH Fc, Daudi cells; none 3.1
[15] = target: T2, human CD74 on cells (human, UniProt P04233 1-296); test: indirect FACS, FITC-GAH Fc, SU-DHL-6 cells; none 4.6
T2 construct: whole, on cells
T2 sequence (looked up): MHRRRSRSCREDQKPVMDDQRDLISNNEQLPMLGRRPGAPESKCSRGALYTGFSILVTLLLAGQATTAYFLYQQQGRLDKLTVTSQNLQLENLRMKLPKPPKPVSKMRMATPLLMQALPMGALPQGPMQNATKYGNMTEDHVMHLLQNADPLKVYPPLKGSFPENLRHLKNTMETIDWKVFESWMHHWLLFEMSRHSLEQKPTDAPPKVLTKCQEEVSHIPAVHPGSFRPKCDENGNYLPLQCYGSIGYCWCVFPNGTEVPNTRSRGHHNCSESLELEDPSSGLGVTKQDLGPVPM

[16] = target: T2, human CD74 on cells; test: indirect FACS, FITC-GAH Fc, Namalwa cells; none 2.5
[17] = target: T2, human CD74 on cells; test: indirect flow cytometry, FITC-GAH Fc, Ramos cells; none 3.1
[18] = target: T2, human CD74 on cells; test: indirect flow cytometry, FITC-GAH Fc, Raji cells; none 6.9
[19] = target: T2, human CD74 on cells; test: indirect flow cytometry, Namalwa cells, FITC-GAH; none 2.52
[20] = target: T2, human CD74 on cells; test: indirect flow cytometry, FITC-GAH Fc, Daudi cells; none 3.2
[21] = target: T2, human CD74 on cells; test: indirect flow cytometry, FITC-GAH Fc, SU-DHL-6 cells; none 4.6
[22] = target: T2, human CD74 on cells; test: indirect flow cytometry, FITC-GAH Fc, RL cells; none 2.4
[23] = target: T2, human CD74 on cells; test: indirect FACS, FITC-GAH Fc, Raji cells; none 6.8
[24] = target: T2, human CD74 on cells; test: indirect flow cytometry, FITC-GAH Fc, Namalwa cells; none 2.6
[25] = target: T2, human CD74 on cells; test: indirect flow cytometry, FITC-GAH Fc, WSU-FSCCL cells; none 2.7
[26] = target: T2, human CD74 on cells; test: indirect FACS, FITC-GAH Fc, Ramos cells; none 3.1
[27] = target: T2, human CD74 on cells; test: indirect FACS, FITC-GAH Fc, WSU-FSCCL cells; none 2.6
[28] = target: T2, human CD74 on cells; test: indirect FACS, FITC-GAH Fc, Daudi cells; none 3.1
[29] = target: T3, human CD22 on cells (human, UniProt P20273 20-847); test: indirect FACS, FITC-GAH Fc, SU-DHL-6 cells; none 4.6
T3 construct: whole, on cells

[30] = target: T3, human CD22 on cells; test: indirect FACS, FITC-GAH Fc, Namalwa cells; none 2.5
[31] = target: T3, human CD22 on cells; test: indirect flow cytometry, Namalwa cells, FITC-GAH; none 2.52
[32] = target: T3, human CD22 on cells; test: indirect flow cytometry, FITC-GAH Fc, SU-DHL-6 cells; none 4.6
[33] = target: T3, human CD22 on cells; test: indirect FACS, FITC-GAH Fc, WSU-FSCCL cells; none 2.6

Geometric Mean Fluorescence [1]: 1200
Geometric Mean Fluorescence [2]: 10.1
Geometric Mean Fluorescence [3]: 204
Geometric Mean Fluorescence [4]: 267
GEO MEAN Fluorescence [5]: 6.28
Geometric Mean Fluorescence [6]: 241
Geometric Mean Fluorescence [7]: 1200
Geometric Mean Fluorescence [8]: 128
Geometric Mean Fluorescence [9]: 267
Geometric Mean Fluorescence [10]: 10.1
Geometric Mean Fluorescence [11]: 8.9
Geometric Mean Fluorescence [12]: 204
Geometric Mean Fluorescence [13]: 8.91
Geometric Mean Fluorescence [14]: 241
B1: veltuzumab (hA20, humanized anti-CD20 mAb) (antibody, V domains shown)
VH: QVQLQQSGAEVKKPGSSVKVSCKASGYTFTSYNMHWVKQAPGQGLEWIGAIYPGMGDTSYNQKFKGKATLTADESTNTAYMELSSLRSEDTAFYYCARSTYYGGDWYFDVWGQGTTVTVSS
VL: DIQLTQSPSSLSASVGDRVTMTCRASSSVSYIHWFQQKPGKAPKPWIYATSNLASGVPVRFSGSGSGTDYTFTISSLQPEDIATYYCQQWTSNPPTFGGGTKLEIK

Geometric Mean Fluorescence [15]: 17.3
Geometric Mean Fluorescence [16]: 7.81
Geometric Mean Fluorescence [17]: 23.3
Geometric Mean Fluorescence [18]: 95.1
GEO MEAN Fluorescence [19]: 10.1
Geometric Mean Fluorescence [20]: 48.8
Geometric Mean Fluorescence [21]: 17.3
Geometric Mean Fluorescence [22]: 7.9
Geometric Mean Fluorescence [23]: 95.1
Geometric Mean Fluorescence [24]: 7.8
Geometric Mean Fluorescence [25]: 8.7
Geometric Mean Fluorescence [26]: 23.2
Geometric Mean Fluorescence [27]: 8.66
Geometric Mean Fluorescence [28]: 48.8
B2: milatuzumab (hLL1, humanized anti-CD74 mAb) (antibody, V domains shown)
VH: QVQLQQSGSELKKPGASVKVSCKASGYTFTNYGVNWIKQAPGQGLQWMGWINPNTGEPTFDDDFKGRFAFSLDTSVSTAYLQISSLKADDTAVYFCSRSRGKNEAWFAYWGQGTLVTVSS
VL: DIQLTQSPLSLPVTLGQPASISCRSSQSLVHRNGNTYLHWFQQRPGQSPRLLIYTVSNRFSGVPDRFSGSGSGTDFTLKISRVEAEDVGVYFCSQSSHVPPTFGAGTRLEIK

Geometric Mean Fluorescence [29]: 11
Geometric Mean Fluorescence [30]: 6.4
GEO MEAN Fluorescence [31]: 6.76
Geometric Mean Fluorescence [32]: 11
Geometric Mean Fluorescence [33]: 4.1
B3: epratuzumab (hLL2, humanized anti-CD22 mAb) (antibody, V domains shown)
VH: QVQLVQSGAEVKKPGSSVKVSCKASGYTFTSYWLHWVRQAPGQGLEWIGYINPRNDYTEYNQNFKDKATITADESTNTAYMELSSLRSEDTAFYFCARRDITTFYWGQGTTVTVSS
VL: DIQLTQSPSSLSASVGDRVTMSCKSSQSVLYSANHKNYLAWYQQKPGKAPKLLIYWASTRESGVPSRFSGSGSGTDFTFTISSLQPEDIATYYCHQYLSSWTFGGGTKLEIK
